Source: the array DNA melting data of Ke et al.

Assay: melting temperature; UV melt of duplexes

| Substance | Tm (sodium 0.07 M, strand 2 µM) | Tm (sodium 0.12 M, strand 2 µM) | Tm (sodium 0.22 M, strand 2 µM) | Tm (sodium 0.62 M, strand 2 µM) | Tm (sodium 1.02 M, strand 2 µM) | further results |
| --- | --- | --- | --- | --- | --- | --- |
| ACTGGCGAGGATCCAGCGGTCA+TGACCGCTGGATCCTCGCCAGT ((((((((((((((((((((((+)))))))))))))))))))))) | – | – | – | – | – | Tm (sodium 0.12 M, strand 4.1 µM): 71.8 °C |
| AGATCATATATATCGAT+ATCGATATATATGATCT (((((((((((((((((+))))))))))))))))) | – | – | – | – | – | Tm (sodium 0.12 M, strand 4 µM): 49.2 °C |
| AGCAGTCCGCCACACCCTGA+TCAGGGTGTGGCGGACTGCT ((((((((((((((((((((+)))))))))))))))))))) | 66.5 °C | 69.9 °C | 74 °C | 76.9 °C | 78.5 °C | – |
| AGCTGCAGTGGATGTGAGAA+TTCTCACATCCACTGCAGCT ((((((((((((((((((((+)))))))))))))))))))) | 59.7 °C | 63.5 °C | 67.6 °C | 71.3 °C | 73.1 °C | – |
| ATAAATAAAGCTTTATTTAT+ATAAATAAAGCTTTATTTAT ((((((((((((((((((((+)))))))))))))))))))) | – | – | – | – | – | Tm (sodium 0.12 M, strand 7 µM): 46.2 °C |
| ATAAATTAGGATCCATATAAAT+ATTTATATGGATCCTAATTTAT ((((((((((((((((((((((+)))))))))))))))))))))) | – | – | – | – | – | Tm (sodium 0.12 M, strand 5.8 µM): 47.7 °C |
| ATACGCGAGGATCCAGCGCAAT+ATTGCGCTGGATCCTCGCGTAT ((((((((((((((((((((((+)))))))))))))))))))))) | – | – | – | – | – | Tm (sodium 0.12 M, strand 4 µM): 71.1 °C |
| ATATATATGAATTCATATATAT+ATATATATGAATTCATATATAT ((((((((((((((((((((((+)))))))))))))))))))))) | – | – | – | – | – | Tm (sodium 0.12 M, strand 6 µM): 48.9 °C |
| ATGCAATGCTACATATTCGC+GCGAATATGTAGCATTGCAT ((((((((((((((((((((+)))))))))))))))))))) | 55.2 °C | 59.5 °C | 62.9 °C | 67 °C | 68.9 °C | – |
| ATGGGTGGGAGCCTCGGTAGCAGCC+GGCTGCTACCGAGGCTCCCACCCAT (((((((((((((((((((((((((+))))))))))))))))))))))))) | 70.7 °C | 74.5 °C | 78.2 °C | 81.6 °C | 83.4 °C | – |
| CAGCCTCGTTCGCACAGCCC+GGGCTGTGCGAACGAGGCTG ((((((((((((((((((((+)))))))))))))))))))) | 67.2 °C | 70.7 °C | 74 °C | 77.7 °C | 78.1 °C | – |
| CAGTGAGACAGCAATGGTCG+CGACCATTGCTGTCTCACTG ((((((((((((((((((((+)))))))))))))))))))) | 59.8 °C | 63.5 °C | 67 °C | 71.1 °C | 72.5 °C | – |
| CAGTGGGCTCCTGGGCGTGCTGGTC+GACCAGCACGCCCAGGAGCCCACTG (((((((((((((((((((((((((+))))))))))))))))))))))))) | 72 °C | 75.6 °C | 79.2 °C | 82.6 °C | 83.4 °C | – |
| CCATCATTGTGTCTACCTCA+TGAGGTAGACACAATGATGG ((((((((((((((((((((+)))))))))))))))))))) | 55.6 °C | 59.5 °C | 63.1 °C | 67.3 °C | 68.5 °C | – |
| CCCTGCACTTTAACTGAATTGTTTA+TAAACAATTCAGTTAAAGTGCAGGG (((((((((((((((((((((((((+))))))))))))))))))))))))) | 57.4 °C | 61.4 °C | 65.6 °C | 70.1 °C | 72.5 °C | – |
| CCGTGCGGTGTGTACGTTTTATTCATCATA+TATGATGAATAAAACGTACACACCGCACGG ((((((((((((((((((((((((((((((+)))))))))))))))))))))))))))))) | 63.9 °C | 68.3 °C | 71.8 °C | 76.5 °C | 77.6 °C | – |
| CGGAATCCATGTTACTTCGGCTATC+GATAGCCGAAGTAACATGGATTCCG (((((((((((((((((((((((((+))))))))))))))))))))))))) | 60.9 °C | 64.7 °C | 68.7 °C | 73.3 °C | 74.8 °C | – |
| CGTACTAGCGTTGGTCATGG+CCATGACCAACGCTAGTACG ((((((((((((((((((((+)))))))))))))))))))) | 59.6 °C | 63.1 °C | 66.6 °C | 70.5 °C | 71.1 °C | – |
| CTCGTACCTTCCGGTCC+GGACCGGAAGGTACGAG (((((((((((((((((+))))))))))))))))) | – | – | – | – | – | Tm (sodium 0.1 M, strand 4 µM): 60.6 °C |
| CTCGTACCTTTCCGGTCC+GGACCGGAAAGGTACGAG ((((((((((((((((((+)))))))))))))))))) | – | – | – | – | – | Tm (sodium 0.1 M, strand 4 µM): 61.7 °C |
| CTGGTCTGGATCTGAGAACTTCAGG+CCTGAAGTTCTCAGATCCAGACCAG (((((((((((((((((((((((((+))))))))))))))))))))))))) | 62.1 °C | 65.8 °C | 69.6 °C | 74.2 °C | 75.6 °C | – |
| CTTAAGATATGAGAACTTCAACTAATGTGT+ACACATTAGTTGAAGTTCTCATATCTTAAG ((((((((((((((((((((((((((((((+)))))))))))))))))))))))))))))) | 56.8 °C | 61.3 °C | 64.9 °C | 70.5 °C | 71.8 °C | – |
